Key:
HLA-DP on Ba/F3 cells = molecular target: T1, HLA-DP on Ba/F3 cells (human, UniProt P20036 29-222; P04440 30-225, limits assumed); assay: FACS on Ba/F3-HLA-DP cells, single antibody concentration, goat F(ab')2 anti-human IgG-PE
T1 construct: whole, on cells; also called Ba/F3-HLA-DP

HLA-DQ6.3 on Ba/F3 cells = molecular target: T2, HLA-DQ6.3 on Ba/F3 cells (human, UniProt P01920 33-230, limits assumed); assay: FACS on Ba/F3-HLA-DQ6.3 cells, single antibody concentration, goat F(ab')2 anti-human IgG-PE
T2 construct: whole, on cells; also called Ba/F3-HLA-DQ6.3
T2 MHC II alpha: not shown
T2 MHC II beta: not shown

HLA-DQ5.1 on Ba/F3 cells = molecular target: T3, HLA-DQ5.1 on Ba/F3 cells (human, limits assumed); assay: FACS on Ba/F3-HLA-DQ5.1 cells, single antibody concentration, goat F(ab')2 anti-human IgG-PE
T3 construct: whole, on cells; also called Ba/F3-HLA-DQ5.1
T3 MHC II alpha: not shown
T3 MHC II beta: not shown

HLA-DR on Ba/F3 cells = molecular target: T4, HLA-DR on Ba/F3 cells (human, UniProt P01903 26-216; P79483 30-227, limits assumed); assay: FACS on Ba/F3-HLA-DR cells, single antibody concentration, goat F(ab')2 anti-human IgG-PE
T4 construct: whole, on cells; also called Ba/F3-HLA-DR
T4 MHC II alpha: not shown
T4 MHC II beta: not shown

[1] = molecular target: T5, HLA-DQ2.5/33mer gliadin peptide complex on Ba/F3 cells (human); assay: FACS, Ba/F3 cells; IC17=0%, DQN0139bb//IC17=100%;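 note: flow cytometry binding of anti-HLA-DQ antibodies at 5 µg/mL, incubated 30 min at room temperature with Ba/F3 lines presenting HLA-DQ/peptide complexes; antibody tested at 5 microgram/mL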
T5 construct: whole, on cells; also called Ba/F3-HLA-DQ2.5/33mer gliadin
From the text: (§1) The binding of anti-HLA-DQ antibodies to Ba/F3-HLA-DQ2.5, Ba/F3-HLA-DQ2.2, Ba/F3-HLA-DQ7.5, Ba/F3-HLA-DQ8, Ba/F3-HLA-DQ5.1, Ba/F3-HLA-DQ6.3, Ba/F3-HLA-DQ7.3, Ba/F3-HLA-DR, Ba/F3-HLA-DP, Ba/F3-HLA-DQ2.5/CLIP, Ba/F3-HLA-DQ2.5/HBV, Ba/F3-HLA-DQ2.5/Salmonella, Ba/F3-HLA-DQ2.5/TPO, Ba/F3-HLA-DQ2.5/M. bovis, Ba/F3-HLA-DQ2.5/alpha 1 gliadin, Ba/F3-HLA-DQ2.5/alpha 2 gliadin, Ba/F3-HLA-DQ2.5/gamma 1 gliadin, Ba/F3-HLA-DQ2.5/gamma 2 gliadin, Ba/F3-HLA-DQ2.5/omega 1 gliadin, Ba/F3-HLA-DQ2.5/omega 2 gliadin, Ba/F3-HLA-DQ2.5/BC hordein, Ba/F3-HLA-DQ2.5/alpha 3 gliadin, Ba/F3-HLA-DQ2.5/alpha 1b gliadin, Ba/F3-HLA-DQ2.5/gamma 4b gliadin, Ba/F3-HLA-DQ2.5/avenin 1, Ba/F3-HLA-DQ2.5/avenin 2, Ba/F3-HLA-DQ2.5/avenin 3, Ba/F3-HLA-DQ2.5/hordein 1, Ba/F3-HLA-DQ2.5/hordein 2, Ba/F3-HLA-DQ2.5/secalin 1, Ba/F3-HLA-DQ2.5/secalin 2, Ba/F3-HLA-DQ2.5/14mer 1, Ba/F3-HLA-DQ2.5/33mer gliadin, Ba/F3-HLA-DQ2.5/26mer gliadin, was tested. 5 microgram/mL of each of the anti-HLA-DQ antibodies was incubated with each cell line for 30 minutes at room temperature and washed with FACS buffer (2% FBS, 2 mM EDTA in PBS).

[2] = molecular target: DQ2.5/alpha 2 gliadin peptide on IHW9023 cells (human); assay: cell-based or functional assay
[3] = molecular target: DQ2.5/alpha 1 gliadin peptide on IHW9023 cells (human); assay: cell-based or functional assay
[4] = molecular target: DQ2.5/gamma 4a gliadin peptide on IHW9023 cells (human); assay: cell-based or functional assay
[5] = molecular target: DQ2.5/omega 2 gliadin peptide on IHW9023 cells (human); assay: cell-based or functional assay
[6] = molecular target: DQ2.5/gamma 1 gliadin peptide on IHW9023 cells (human); assay: cell-based or functional assay
[7] = molecular target: DQ2.5/alpha 1b gliadin peptide on IHW9023 cells (human); assay: cell-based or functional assay
[8] = molecular target: DQ2.5/omega 1 gliadin peptide on IHW9023 cells (human); assay: cell-based or functional assay
[9] = molecular target: DQ2.5/BC hordein peptide on IHW9023 cells (human); assay: cell-based or functional assay
[10] = molecular target: HLA-DQ2.5/33mer gliadin peptide on IHW9088 cells (human); assay: cell-based or functional assay
HLA-DQ7.3 on Ba/F3 cells = molecular target: T6, HLA-DQ7.3 on Ba/F3 cells (human, UniProt P01909 24-216; P01920 33-230, limits assumed); assay: FACS, Ba/F3 cells; IC17=0%, DQN0139bb//IC17=100%;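 note: flow cytometry binding of anti-HLA-DQ antibodies at 5 µg/mL, incubated 30 min at room temperature with Ba/F3 lines presenting HLA-DQ/peptide complexes; antibody tested at 5 microgram/mL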
T6 construct: whole, on cells; also called Ba/F3-HLA-DQ7.3
From the text: as §1
T6 MHC II alpha: not shown
T6 MHC II beta: not shown

HLA-DQ2.5 on Ba/F3 cells = molecular target: T7, HLA-DQ2.5 on Ba/F3 cells (human, UniProt P01909 24-216, limits assumed); assay: FACS, Ba/F3 cells; IC17=0%, DQN0139bb//IC17=100%;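 note: flow cytometry binding of anti-HLA-DQ antibodies at 5 µg/mL, incubated 30 min at room temperature with Ba/F3 lines presenting HLA-DQ/peptide complexes; antibody tested at 5 microgram/mL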
T7 construct: whole, on cells; also called Ba/F3-HLA-DQ2.5
From the text: as §1

HLA-DQ8 on Ba/F3 cells = molecular target: T8, HLA-DQ8 on Ba/F3 cells (human, UniProt P01909 24-216; P01920 33-230, limits assumed); assay: FACS, Ba/F3 cells; IC17=0%, DQN0139bb//IC17=100%;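 note: flow cytometry binding of anti-HLA-DQ antibodies at 5 µg/mL, incubated 30 min at room temperature with Ba/F3 lines presenting HLA-DQ/peptide complexes; antibody tested at 5 microgram/mL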
T8 construct: whole, on cells; also called Ba/F3-HLA-DQ8
From the text: as §1
T8 MHC II alpha: not shown
T8 MHC II beta: not shown

HLA-DQ2.2 on Ba/F3 cells = molecular target: T9, HLA-DQ2.2 on Ba/F3 cells (human, UniProt P01909 24-216, limits assumed); assay: FACS, Ba/F3 cells; IC17=0%, DQN0139bb//IC17=100%
T9 construct: whole, on cells; also called Ba/F3-HLA-DQ2.2
From the text: as §1
T9 MHC II alpha: not shown
T9 MHC II beta: not shown

HLA-DQ7.5 on Ba/F3 cells = molecular target: T10, HLA-DQ7.5 on Ba/F3 cells (human, UniProt P01909 24-216; P01920 33-230, limits assumed); assay: FACS, Ba/F3 cells; IC17=0%, DQN0139bb//IC17=100%
T10 construct: whole, on cells; also called Ba/F3-HLA-DQ7.5
From the text: as §1

T1 sequence (P20036 29-222 limits assumed, chain 1 of 4, other chains not shown): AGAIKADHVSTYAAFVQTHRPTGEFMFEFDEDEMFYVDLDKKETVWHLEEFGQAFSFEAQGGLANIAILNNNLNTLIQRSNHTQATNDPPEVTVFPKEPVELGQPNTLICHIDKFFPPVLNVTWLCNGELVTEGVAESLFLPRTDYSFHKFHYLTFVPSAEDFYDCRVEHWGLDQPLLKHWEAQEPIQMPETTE
T1 sequence (P04440 30-225 limits assumed, chain 2 of 4, other chains not shown): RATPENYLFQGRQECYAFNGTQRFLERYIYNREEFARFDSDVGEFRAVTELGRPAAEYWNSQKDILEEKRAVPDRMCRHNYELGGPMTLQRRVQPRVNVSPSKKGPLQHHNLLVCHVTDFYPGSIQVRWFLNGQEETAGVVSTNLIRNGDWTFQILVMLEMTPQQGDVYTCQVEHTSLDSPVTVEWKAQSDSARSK

Binder | binding result (HLA-DP on Ba/F3 cells) | binding result (HLA-DQ6.3 on Ba/F3 cells) | binding result (HLA-DQ5.1 on Ba/F3 cells) | binding result (HLA-DR on Ba/F3 cells) | % MFI [1] [%] | IC50, Jurkat NFAT-Luc T cell activation [2] [µg/mL] | IC50, Jurkat NFAT-Luc T cell activation [3] [µg/mL] | IC50, Jurkat NFAT-Luc T cell activation [4] [µg/mL] | IC50, Jurkat NFAT-Luc T cell activation [5] [µg/mL] | IC50, Jurkat NFAT-Luc T cell activation [6] [µg/mL] | IC50, Jurkat NFAT-Luc T cell activation [7] [µg/mL] | IC50, Jurkat NFAT-Luc T cell activation [8] [µg/mL] | IC50, Jurkat NFAT-Luc T cell activation [9] [µg/mL] | IC50 (read off the curve) [10] [microgram/mL] | % MFI (HLA-DQ7.3 on Ba/F3 cells) [%] | % MFI (HLA-DQ2.5 on Ba/F3 cells) [%] | % MFI (HLA-DQ8 on Ba/F3 cells) [%] | % MFI (HLA-DQ2.2 on Ba/F3 cells) [%] | % MFI (HLA-DQ7.5 on Ba/F3 cells) [%]
DQN0344xx//DQN0385ee (bispecific antibody, human IgG1, kappa) heavy 1: QSLEESGGGLVKPGGTLTLTCTASGFSFSSSYWMCWVRQAPGKGLEWVACVYGGSDTTYYASWTKGRFTISKGSSTTVALQVTSLTAADTATYFCARDPLNYYYYGELNLWGPGTLVTVSSASTKGPSVFPLAPSSKSTSGGTAALGCLVKDYFPEPVTVSWNSGALTSGVHTFPAVLQSSGLYSLSSVVTVPSSSLGTQTYICNVNHKPSNTKVDKRVEPKSCDKTHTCPPCPAPELRRGPSVFLFPPKPKDTLMISRTPEVTCVVVDVSHEDPEVKFNWYVDGVEVHNAKTKPREEQYNSTYRVVSVLTVLHQDWLNGKEYKCKVSNKALPAPIEKTISKAKGQPREPQVYTLPPSREEMTKNQVSLTCLVKGFYPSDIAVEWESNGQPENNYKTTPPYLDSDGSFFLYSKLTVDKSRWQQGNVFSCSVMHEALHNHYTQESLSLSP light 1: AVVLTQTASPVSAAVGGTVTIRCQATENIYSGLAWYQQKPGQPPKVLIYYVSTLASGVPSRFKGSGSGTEYTLTISGVQCDDAATYYCQTYHDISNVTFGGGTKVEIKRTVAAPSVFIFPPSDEQLKSGTASVVCLLNNFYPREAKVQWKVDNALQSGNSQESVTEQDSKDCTYSLSSTLTLSKADYEKHKVYACEVTHQGLSSPVTKSFNRGEC heavy 2: QEQLEESGGDLVKPGASLTLTCTASGFSFYSSYWICWVRQAPGKGLEWIACIDTGSGSIDYASWVNGRFTISKTSSTTVTLQMTSLTVADTATYFCARDIGIDYNFWGPGTLVTVSSASTKGPSVFPLAPSSKSTSGGTAALGCLVKDYFPEPVTVSWNSGALTSGVHTFPAVLQSSGLYSLSSVVTVPSSSLGTQTYICNVNHKPSNTKVDKRVEPKSCDKTHTCPPCPAPELRRGPSVFLFPPKPKDTLMISRTPEVTCVVVDVSHEDPEVKFNWYVDGVEVHNAKTKPREEQYNSTYRVVSVLTVLHQDWLNGKEYKCKVSNKALPAPIEKTISKAKGQPREPQVYTLPPSRKEMTKNQVSLTCLVKGFYPSDIAVEWESNGQPENNYKTTPPYLDSDGSFFLYSKLTVDKSRWQQGNVFSCSVMHEALHNHYTQKSLSLSP light 2: AFELTQTPSFVEAAVGGTVTIKCQATQSISSYLNWYQQKPGQPPKLLIYYASTLASGVPSRFKGSGSGTEFSLTISGVECADAATYYCHYGISYVSFGGGTKVEIKRTVAAPSVFIFPPSDEQLKSGTASVVCLLNNFYPREAKVQWKVDNALQSGNSQESVTEQDSKDCTYSLSSTLTLSKADYEKHKVYACEVTHQGLSSPVTKSFNRGEC | no binding (tested: 5 microgram/mL) | no binding (tested: 5 microgram/mL) | no binding (tested: 5 microgram/mL) | no binding (tested: 5 microgram/mL) | 91.3 | 0.000606 | 0.019 | 0.892 | 0.00323 | 0.0469 | 0.0594 | 0.0177 | 0.0331 | – | – | – | – | – | –
DQN0385ee//IC17 (bispecific antibody, human IgG1, kappa) heavy 1: QEQLEESGGDLVKPGASLTLTCTASGFSFYSSYWICWVRQAPGKGLEWIACIDTGSGSIDYASWVNGRFTISKTSSTTVTLQMTSLTVADTATYFCARDIGIDYNFWGPGTLVTVSSASTKGPSVFPLAPSSKSTSGGTAALGCLVKDYFPEPVTVSWNSGALTSGVHTFPAVLQSSGLYSLSSVVTVPSSSLGTQTYICNVNHKPSNTKVDKRVEPKSCDKTHTCPPCPAPELRRGPSVFLFPPKPKDTLMISRTPEVTCVVVDVSHEDPEVKFNWYVDGVEVHNAKTKPREEQYNSTYRVVSVLTVLHQDWLNGKEYKCKVSNKALPAPIEKTISKAKGQPREPQVYTLPPSREEMTKNQVSLTCLVKGFYPSDIAVEWESNGQPENNYKTTPPYLDSDGSFFLYSKLTVDKSRWQQGNVFSCSVMHEALHNHYTQESLSLSP light 1: AFELTQTPSFVEAAVGGTVTIKCQATQSISSYLNWYQQKPGQPPKLLIYYASTLASGVPSRFKGSGSGTEFSLTISGVECADAATYYCHYGISYVSFGGGTKVEIKRTVAAPSVFIFPPSDEQLKSGTASVVCLLNNFYPREAKVQWKVDNALQSGNSQESVTEQDSKDCTYSLSSTLTLSKADYEKHKVYACEVTHQGLSSPVTKSFNRGEC heavy 2: QVQLQQSGPQLVRPGASVKISCKASGYSFTSYWMHWVNQRPGQGLEWIGMIDPSYSETRLNQKFKDKATLTVDKSSSTAYMQLSSPTSEDSAVYYCALYGNYFDYWGQGTTLTVSSASTKGPSVFPLAPSSKSTSGGTAALGCLVKDYFPEPVTVSWNSGALTSGVHTFPAVLQSSGLYSLSSVVTVPSSSLGTQTYICNVNHKPSNTKVDKRVEPKSCDKTHTCPPCPAPELRRGPSVFLFPPKPKDTLMISRTPEVTCVVVDVSHEDPEVKFNWYVDGVEVHNAKTKPREEQYNSTYRVVSVLTVLHQDWLNGKEYKCKVSNKALPAPIEKTISKAKGQPREPQVYTLPPSRKEMTKNQVSLTCLVKGFYPSDIAVEWESNGQPENNYKTTPPYLDSDGSFFLYSKLTVDKSRWQQGNVFSCSVMHEALHNHYTQKSLSLSP light 2: DIQMTQSSSSFSVSLGDRVTITCKASEDIYNRLAWYQQKPGNAPRLLISGATSLETGVPSRFSGSGSGKDYTLSITSLQTEDVATYYCQQYWSTPYTFGGGTKLEVKRTVAAPSVFIFPPSDEQLKSGTASVVCLLNNFYPREAKVQWKVDNALQSGNSQESVTEQDSKDSTYSLSSTLTLSKADYEKHKVYACEVTHQGLSSPVTKSFNRGEC | – | – | – | – | – | – | – | – | – | – | – | – | – | ~0.06 | 0.1 | 0.1 | 0.1 | 0.3 | 0.1

Source: US20220153847A1 (Chugai, published 2022)
